This note sets out measurements from article PMC5993831 (2018).

What is called Kd is the constant that tells how readily two partners part at equilibrium. Read a high Kd as lower affinity.

This assay addresses PD-L1 (Mus musculus, UniProt Q9EP73).

PD-L1, sequence (Q9EP73 19-239): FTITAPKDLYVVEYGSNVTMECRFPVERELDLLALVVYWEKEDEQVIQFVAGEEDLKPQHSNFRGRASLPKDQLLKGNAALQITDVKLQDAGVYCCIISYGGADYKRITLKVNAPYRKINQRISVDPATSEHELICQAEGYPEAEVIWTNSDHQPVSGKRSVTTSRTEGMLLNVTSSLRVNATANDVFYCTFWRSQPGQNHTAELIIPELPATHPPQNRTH

B1: PD-L1 trap (trimeric PD-1 ECD fused to CMP1 trimerization domain) 21-150 (protein)
chain: SGWLLEVPNGPWRSLTFYPAWLTVSEGANATFTCSLSNWSEDLMLNWNRLSPSNQTEKQAAFCNGLSQPVQDARFQIIQLPNRHDFHMNILDTRRNDSGIYLCGAISLHPKAKIEESPGAELVVTERILE
modifications: trimeric fusion with mouse CMP1 residues 458-500 via hinge linker, His6 tag
For the molecule B1, the affinity, expressed as Kd, was 0.219 nM.
